Data taken from the nanobody polyreactivity screen of Harvey et al. (2022).

Experiment: yeast display, Sf9 membrane polyspecificity reagent, FACS + sequencing; frameworks hold sequencing errors
How it was run: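 Nanobodies came from a synthetic yeast display library in Saccharomyces cerevisiae BJ5465, induced with galactose for 36–48 hours and stained for 1 hour at 4 °C with 10% biotinylated, detergent-solubilized Sf9 membrane reagent. Cells were enriched on streptavidin microbeads and then FACS-sorted, with low and high (top ~1%) gates set on anti-HA fluorescence for expression and streptavidin fluorescence for reagent binding. Each polyreactivity label reflects the gate a clone came from. Genes were amplified by colony PCR, sequenced by MiSeq 2 × 250 and filtered by CDR length.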

Sequence	polyreactivity (PSR sort gate)
QVQLVESGGGLVQAGGSLRLSCAASGRIFFYYAMGWYRQAPGTERELVAAITSGGNTNYADSVKGRFTISRDNAKNTVYLQMNSLKPEDTAVYYCAVDSWEYWRRGIYYYRFYYWGQGTQVTVSS	low polyreactivity
QVQLVESGGGLVQAGGSHRLSCAASGRTFYINAMGWYRQAPGKERELVAAISIRGGGTYYADSVKGRFTISRDNAKNTVYLQMNSLKPEDTAVYYCAAEYTEGYTHDYWGQGTQVTVSS	low polyreactivity
QVQLVESGGGLVQAGGSLRLSCAASGRTFKYNAMGWYRQAPGKERELVAAIRKSGTRTYYADSVKGRFTISRDNAKNTVYLQMNSLKPEDTAVYYCNRVGFDYWGQGTQVTVSS	low polyreactivity
QVQLVESGGGLVQAGGSLRLSCAASGSIFSYNAMGWYRQAPGKERELVAAISWSGGSTYYADSVKGRFTISRDNAKNTVYLQMNSLKPEDTAVYYCNAYRYRQSSSDKYGYWGQGTQVTVSS	high polyreactivity
QVQLVESGGGLVQAGGSLRLSCAASGRIIDRNAMGWYRQAPGKERELVAAISSSGSTNYADSVKGRFTISRDNAKNTVYLQMNSLKPEVTAVYYCAARWRSVLAAGTRPVSFDYWGQGTQVTVSS	low polyreactivity
QVQLEESGGAIVQAAGSLRLSCAASGLIFAWYALGWYRPAPGKERELVATISWNGDRTYYADSVKGRFTISRDNAKNTVYLQMNSLKPEDTAVYYCAARFGSGFNYWGKGTQVTVSS	high polyreactivity
QVQLVESGGGLVQAGGSLRLSCAASGSIFVFYAMGWYRQAPGKERELVATISSAGSTYYADSVKGRFTISRDNAKNTVYLQMNSLKPEDTAVYYCARGYIPSYWWYHSDRGDYWGQGTQVTVSS	low polyreactivity
QVQLVESGGGLVQAGGSLRLSCAASGRIFGNNAMGWYRQAPGKVRELVAAIRSRGTRTYYADSVKGRFTISRDNAKNTVNLQMNSLKPEDPAVYYCATTSLTGLYDRYDYWGQGTQVTVSS	high polyreactivity
QVQLVESGGGLVQAGGSLRLSCAASGITFSYYAMGWYRQAPGKERELVAAISWSGGTTYYADSVKGRFTISRDNAKNTVYLQMNSLKPEDTAVYYCAADGGAVGSDYWGQGTQVTVSS	high polyreactivity
QVQLVESGGGLVQAGGSLRLSCAASGSIFFLYAMGWYRQAPGKERELVAAISLSTGNTYYADSVKGRFTISRDNAKNTVYLQMNSLKPEDSAVYYCAATYVSISYRYDYWGQGTQVTVSS	high polyreactivity
QVQLVESGGGLVQAGGSLRLSCAASGLTFKFNAMGWYRQAPGKERELVAAISFGGDDTYYADSVKGRFTISRDNAKNTVYLQMNSLKPEDTAVYYCAAEYDTWGYSGRDYWGQGTQVTVSS	low polyreactivity
QVQLVESGGGLVQAGGSLRLSCAASGRTFRGYSMGWYRQAPGKERELVAAISSSGGRTYYADSVKGRFTISRDNAKNTVYLQMNSLKPEDTAVYYCNAYYWSATWYFAAWDYYYWGQGTQVTVSS	high polyreactivity
QVQLVESGGGLVQAGGSLRLSCAASGRTFSTYAMGGYRQAPGKERELVAVIRRDGSTSYADSVKGRFTISRDNAKNTVYLQMNSLKPEDTAVYYCAVTRRGEYYWGQGTQVTVSS	high polyreactivity
QVQLVESGGGLVHAGGSLRLSCAASGSIFYEYAMGWYRQAPGKERELVASINRGGGSTYYADSVKGRFTISRDNAKNTVYLQMNSLKPEDTAVYYCAAQWKYRQSYLDYYWGQGTQVNVSS	low polyreactivity
QVQLVESGGGLVQAGGSLRLSCAASGGIFKRNTMGWYRQAPGKERELVAGISWTGGRTYYADSVKGRFTISSDNAKNNVYLPPNSLKPEDTAVYYCAAKPLQGVRRVEYWGQGTQVTVSS	high polyreactivity
QVQLVESGGGLVQAGGSLRLSCAASGSIFFENDMGWYRQAPGKEREFVAAISLSSASTYYADSVKGRFTISRDNAKNTVYLQMNSLKPEDTAVYYCAADAIFGWPTFDYWGQGTQVTVSS	low polyreactivity
QVQLVESGGGLVQAGGSHRLSCAASGRIIESYAMGWYRQAPGKERELVAAISSNDGSTYYADSVKGRFTISRDNAKNTVYLQMNSLKPEDTAVYDCAAELGQVDYGGPSYDYWGQGTQVTVSS	low polyreactivity
QVQLVESGGGLVQAGGSLRLSCAASGIIFRLYGMGWYRQAPGKERELVAGINTGGSTYADSVKGRFTISRDNAKNTVYLQMNSLKPEDTAVYYCATGPYLIYDYWGQGTQVTVSS	low polyreactivity
QVQLVESGGGLVQAGGSLRLSCAASGRIFYKYVRGCYRQAPGKDRELVATITSGGSTYYADSVKGRFTISRDNAKNTVYLQMNSLNPEDTAVYYCAARKYYSRAYDYWGQGTQVTVSS	high polyreactivity
QVQLVESGGGLVQAGGSLRLSCAASGITFDYYAMGWYRQAPRKERELVPGISWGGGSTYYADSVKGRFTISRDNAKNTVYLQMNSLKPEDTAVYYCAADIVSSPSSYVPPGDYWGQGTQVTVSS	low polyreactivity
QVQLVESGGGLVQAGGSLRLSCAASGYTFPLYAMGWYRQAPGTERELVADINIGGASTYYADSVKGRFTISRDNAKNTVYLQMNSLKPEDTAVYYCAADYTVRVVATYDYWGQGTQVTVSS	low polyreactivity
QVQLVESGGGLVQAGGSLRLSCAASGSTFPYNAMGWYRQAPGKERELVAANTFSGGSTYYADSVKGRFTISRDNAKNTVYLQMNSLKPEDTAVYYCNARYPWWGQRYDYWGQGTQVTVSS	low polyreactivity

Sequence	polyreactivity (PSR sort gate)
QVQLVESGGGLVQAGGSLRLSCAASGITFKLYAIGWYRQAPGKERELVATINRGSSTYYADSVKGRFTISRDNAKNTVYLQMNSLKPEDTAVYYCAADNVRKWHKMDYWGQGTQVTVSS	high polyreactivity
QVQLVESGAGLVQAGGSLRLSCAASGFAFYLYAMGWYRQAPGIERELVAAISSRGGNTYYADTVKGRFTISRDYAKNTVYLPMISLKPEDNAVYYCAAEFWNWYGDYDYWGQGTQVTVSS	high polyreactivity
QVQLVESGGGLVQAGGSLRLSCAASGFTFDSYAMGRYRQAPGKERELVAAISSSGGDSTSYADSVKGRFTISRDNAKNTVYLQMNRLKPEDTAVYYCADEQFYSFIVDDTWFSGFDYWGQGTQVTVSS	low polyreactivity
QVQLVESGGGLVQAGGSLRLSCAASGSTIGRYAMGWYRQAPGKERELVASIRSSGSTYYADSVKGRFTISRDNAKNTVYLQMNSLKPEDTAVYYCNRGVYYGSRYNYWGQGTQVTVSS	high polyreactivity
QVQLVESGGGLVQAGGSLRLSCAASGLTFTYNAMGWYRQAPGKERELVAAISKRGGSTYYADSVKGRFTISRDNAKNTVYLQMNSLKPEDTAVYYCNARTTTRSYPAFDYWGQGTQVTVSS	high polyreactivity
QVQLVESGGGLVQAGGSLPLSCAASGRTFGENAMGWYRQAPGKERELVAAITSGARTYYADSVKGRFTISRDNAKNTVYLQMNSLKPEDTAVYYCAKAYRRFSGGAGKQGGYYWGQGTQVTVSS	high polyreactivity
QVQLVESGGGLVQAGGSLRLSCPASGLTFQRYAMGWYRQAPGKERELVAAITVGGGRTYYADSVKGRFTISRDNAKNTVYLQMNSLKPEDTAVYYCAADSHASTYDYWGQGTQVTVSS	low polyreactivity
QVQLVESGGGLVQAGGSLRLTCAASGSTIGGNPMVCYRHAPGKERELVAAITFSGGSTSYADSVKGRFTISRDNAKNTVYLQMNSLKPEDTAVYYCAASWVYPYDYWRQGTQVTVSS	low polyreactivity
QVQLVESGGGLVQAGGSLRLSCAASGRTFSVNAMGWYRPAPGKERELVAAISWSTGSTYYADSVKGRFTISRDNAKNTVYLQMNSLKPEDTAVYYCAKLYEYRRSRYRTYGYWGQGTQVTVSS	high polyreactivity
QVQLVESGGGLVQAGGSLRLSCAASGFTFYRYAMGWYRQAPGKERELVAVISSSGGRTYYADSVKGRFTISRDNAKNTVYLQMNSLKPEDTAVYYCAAVGAVRREDYWGQGTQVTVSS	high polyreactivity
QVQLVESAGCLVQAAASLRLSCSASGRTFYNYAMGWYRQAPGKEWELVASIRKNGGSTYYADSVKGRFTISRDNAKNTVYFQMNRLKPEDTAVYYCAAGRTVVTGSYYWGQGTQVTVSS	high polyreactivity
QDQLVESGGGLVQEGGSLRLICAASGRTLQSYAMGGYRQAPGKERELVAAISGGASTYADSVKGRFTISRDNAKNTVYLQMNSLKPEDTAVYYCAADDDPVPTYEYDYWGQGTQVTVSS	low polyreactivity
QVQLVESGGGLVQAGGSLRLSSAASGSILSYNAMGWYRQAPGKERELVASITGTGRSTRYADSVKGRFTISRDNAKNSVYLQMNSLKPEDTAVYYCATAAWWYYRIYHEFGYWGQGTQVTVSS	high polyreactivity
QHQLVDSGVCLVQAGRSLRLSCDASGYTFYIYAMGWYTQAPRKERELVATISSSGGGTYYADSVKGRFTISRDNAKNTVYLQMNSLNPEDTAVYYCNADGWYWQAQGYDYWGQGTQVTVSS	low polyreactivity
QVQLVESGGGLVQAGGSLRLSCAASGSTFHYYAMGWYRQAPGKERELVAAISYSGGRTYYADSVKGRFTISRDNAKNTVYLQMNSLKPEDTAVYYCAARRSRTGRDESWGQGTQVTVSS	high polyreactivity
QVQLVESGGGLVQAGGSLRLSCAASGSISFINAMGWYRQAPGKERELVAAISGSGGSTYYADSVKGRFTISRDNAKNTVYLQMNSLKPEDTAVYYCAADYRIHWYIAYGYWGQGTQVTVSS	low polyreactivity
QVQLVESGGGLVQAGGSLRLSCAASGSIFDDYAMGWSRQAPGKERELVAASSGGVSTNYADSVKGRFTISRDNAKNTVYLQMNSLKPEDTAVYYCNADYAGAYIHDYWGKGTQVTVSS	low polyreactivity
QVQLVESGGGLVQAGGSLRLSCAASGIIFGHYALGWYRQAPGKERELVAAITASSGNTYYADSVKGRFTISRDNAKNTVYLQMNSLKPEDTAVYYCAAVSYSSYRYDSWGQGTQVTVSS	high polyreactivity
QVQLVESGGGLVQAGGSLRLSCAASGSIFVYYVMGWYRQAPGKERELVAAISSGGRTYYADSVKGRFTISRDNAKNTVYLQMNSLKPEDTAVYYCAARPIRPASEVNYWGQGTQVTVSS	low polyreactivity
QVQLVESGGGLVQAGGSLRLSCAASGIIFRSYAMGWYRQAPGKERELVAGISLSGGSTYYADSVKGRFTISRDNAKNTVYLQMNSLKPEDTAVYYCATRNHYFRALRYGYWGQGTQVTVSS	high polyreactivity
QAQLVESGGGLVQAGGSLRLSCAASGRTLAWYALGWYRQAPGKERELVADISSGGSTYYADSVKGRFTISRDNAKHTVYVQMNSLKPEDTAVYYCAARWRSWRYKDDYWGQGTQVTVSS	high polyreactivity
